This is an account of results in paper PMC4471680.

The experiment addresses myeloperoxidase (human (endogenous in neutrophils)). Briefly: SEC; unactivated azurophilic granules permeabilized with 0.1% NP-40, Superdex 200 GL, 20 mM HEPES pH 7.4, 100 mM NaCl, 0.5 U/ml heparin; fractions probed for NE and MPO; proteins of the complex detected by mass spectrometry.

Sequence of myeloperoxidase (human (endogenous in neutrophils)) (P05164 165-745): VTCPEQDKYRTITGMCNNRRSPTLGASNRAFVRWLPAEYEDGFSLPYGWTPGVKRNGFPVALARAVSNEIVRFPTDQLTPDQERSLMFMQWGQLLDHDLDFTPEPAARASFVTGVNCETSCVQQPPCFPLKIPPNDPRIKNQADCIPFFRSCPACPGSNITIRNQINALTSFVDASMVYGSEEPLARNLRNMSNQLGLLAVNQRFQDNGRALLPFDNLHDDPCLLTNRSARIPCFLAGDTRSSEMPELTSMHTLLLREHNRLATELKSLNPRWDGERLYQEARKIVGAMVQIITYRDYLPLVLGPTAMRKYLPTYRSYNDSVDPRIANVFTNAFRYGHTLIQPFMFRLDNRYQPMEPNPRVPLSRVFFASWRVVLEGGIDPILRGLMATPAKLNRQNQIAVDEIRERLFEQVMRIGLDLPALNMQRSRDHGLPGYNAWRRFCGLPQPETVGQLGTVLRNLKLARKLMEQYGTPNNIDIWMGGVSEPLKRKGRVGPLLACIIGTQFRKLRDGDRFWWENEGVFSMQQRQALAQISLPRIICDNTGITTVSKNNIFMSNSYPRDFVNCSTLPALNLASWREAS

The term stoichiometry N denotes the number of molecules, sites or subunits per partner or assembly. With “neutrophil elastase (from UniProt P08246 30-267) (enzyme)”, the stoichiometry N is 2 NE per MPO.
